Assay results published in the Human Domainome abundance scans (Beltran et al. 2025).

B1: Retinoic acid receptor beta, residues 85 to 161; numbered along this chain, P10826 (parent)
chain: YKPCFVCQDKSSGYHYGVSACEGCKGFFRRSIQKNMIYTCHRDKNCVINKVTRNRCQYCRLQKCFEVGMSKESVRND

Variants of: B1
Experiment: abundance fitness (aPCA) (normalised: wild type 0, dead -1); higher = more abundant; growth selection in yeast, the domain comes from the species named
Details: Homo sapiens

Abundance fitness, by site and new letter:
K25: D 0.031; Y -0.047; W 0.008; F 0.133; R -0.069; S 0.099; A 0.205; G -0.017; V 0.183; L 0.028; Q 0.122; I 0.094; E 0.036; C 0.02; T 0.048; N 0.133; H -0.223
R30: E 0.142; H -0.172; G -0.702; A -0.935; K 0.152; Q -0.311; S -0.644; L -1.02; D 0.234; C -0.694
G13: H -0.265; F -0.349; D 0.082; R -0.289; V -0.192; S -0.055; E -0.068; N -0.145; Q -0.503; I -0.279; L -0.457; T -0.053; A -0.325; W -0.673; C -0.334; K -0.292; M -0.067; Y -0.206
C21: M -0.751; A -0.809; F -1.14; R -0.666; W -0.839; T -0.98; S -0.933; E -0.575; K -0.91; G -0.76; I -0.89; N -0.501; V -0.881; Y -0.885; Q -0.93; L -0.752; D -0.904
S19: H -0.032; Q 0.049; K -0.21; T 0.02; R -0.121; I 0.066; Y -0.048; N -0.095; W 0.024; D -0.285; P -0.045; L -0.046; M -0.003; V 0.131; E 0.017; C -0.088; A 0.011; F -0.09
V18: E -0.421; A 0.088; D -0.637; Q -0.04; Y -0.29; R -0.76; T 0.103; L -0.353; P -0.365; H -0.433; F -0.108; I 0.012; S -0.165; M -0.209; C -0.106; G -0.22
S12: L -0.216; H -0.034; M -0.102; P -0.227; A 0.057; T 0.067; V 0.011; I -0.096; G -0.242; Y -0.364; N 0.023; C 0.168; W -0.106; D 0.16; R -0.32; F -0.205; K -0.207; E -0.041
S11: G -0.165; F -0.377; K -0.242; Q -0.33; P -0.088; H -0.525; I -0.27; C -0.414; A -0.21; L -0.263; N 0.173; Y -0.407; V -0.221; D 0; T -0.254
F27: M -0.454; I -0.724; Y -0.57; E -0.822; Q -0.97; L -0.886; S -0.773; C -0.703; A -0.748; G -0.715; P -0.888; D -0.698
F28: A -0.534; C -0.895; M -0.47; W -0.123; Y -0.439; E -0.983; K -0.9; V -0.688; L -0.588; T -0.604; Q -0.807; I -0.453; P -1.06; G -0.82; N -0.847; H -0.338
G26: S -0.254; L -0.265; I -0.078; Q -0.11; H -0.109; C -0.107; A -0.021; W -0.862; N 0.246; R -0.481; M -0.396; D 0.162; V -0.121; F -0.193; E 0.107; K -0.49; T -0.024; Y -0.467
G17: M -0.254; D -0.246; N -0.091; W -0.603; H -0.292; K -0.138; Q -0.311; L -0.368; V -0.481; C -0.24; T -0.242; E -0.08; A -0.278; P -0.164; R -0.288; S -0.219; Y 0.101
A20: T -0.065; R -0.785; M -0.228; S -0.07; G -0.614; P -0.724; Y -0.594; E -0.66; F -0.077; I 0.055; C 0.064; N -0.491; K -1.08; L -0.112; V -0.07; Q -0.355; W -0.672
H15: A 0.033; G -0.25; N -0.015; L -0.097; K -0.276; I -0.348; T -0.046; M -0.006; F -0.111; E -0.129; C 0.016; W -0.203; D 0.03; V -0.091; Y 0.05
R29: K -0.092; H 0.162; S 0.098; Q 0.091; A 0.072; P -0.77; N 0.145; W 0.011; D -0.079; E 0.167; L 0.026; Y -0.339; T 0.211; I 0.069; V 0.084
G23: D 0.228; E 0.231; K -0.288; Y -0.452; C 0.108; H -0.114; P 0.072; F -0.304; M -0.227; Q 0.057; N -0.063; W -0.138; V -0.149; I -0.282; A 0.016; T -0.008; R -0.395; S 0.114
Y16: D 0.128; I -0.178; K -0.295; G 0.025; P -0.115; W -0.126; F 0.035; T -0.069; L -0.045; Q -0.027; C -0.134; E 0.29; V -0.062; A -0.062; S -0.072; M -0.15; N -0.08
K10: P -0.03; W -0.042; G -0.045; L 0.043; M 0.078; S 0.165; V 0.007; Y 0.115; D 0.112; H 0.024; N 0.146; F 0.026; R 0.034; I 0.154; T 0.078
C24: N -1.07; Y -0.309; A -1.03; L -0.624; W -0.955; E -0.842; D -0.47; M -0.817; H -0.896; P -1.06; K -0.89; R -0.793; S -0.793; T -0.736; F -0.577
E22: W -0.368; T -0.126; A -0.209; N -0.317; Q -0.316; R -0.663; K -0.205; G -0.325; I -0.267; M -0.224; V -0.203; S -0.239; P -0.324; L -0.186; D -0.025
Y14: H 0.113; G -0.244; K 0.012; L 0.006; W 0.061; E -0.038; I 0.054; C -0.119; R -0.203; A 0.11; S -0.044; N -0.041; T 0.042; V 0.092; P 0.125
